Like-named read-outs stand apart in the source and are kept apart here. Ends that are not written are not given here. * marks the point of attachment. FITC = O=C1OC2(c3ccc(O)cc3Oc3cc(O)ccc32)c2ccc(NC(=S)*)cc21
Columns and labels:
Experiment in all cases: fluorescence polarisation
[1] = molecular target: Human P300 KIX domain (EP300 KIX domain) (human) (UniProt Q09472)
[2] = molecular target: CBP KIX domain (CREBBP KIX domain) (human) (UniProt Q92793)
[3] = molecular target: Human P300 KIX domain (EP300 KIX domain) (human) (UniProt Q09472); remark: listed apart in the source
[4] = molecular target: CBP KIX domain (CREBBP KIX domain) (human) (UniProt Q92793); remark: listed apart in the source
[5] = molecular target: Human P300 KIX domain (EP300 KIX domain) (human, UniProt Q09472 565-652)
[6] = molecular target: CBP KIX domain (CREBBP KIX domain) (human, UniProt Q92793 585-672)
Sequence of CBP KIX domain (CREBBP KIX domain) (Q92793 585-672): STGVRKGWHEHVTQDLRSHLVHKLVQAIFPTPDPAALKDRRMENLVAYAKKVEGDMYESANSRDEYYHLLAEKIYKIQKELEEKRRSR

Sequence of CBP KIX domain (CREBBP KIX domain) (human) (Q92793 585-672): as above
Sequence of Human P300 KIX domain (EP300 KIX domain) (Q09472 565-652): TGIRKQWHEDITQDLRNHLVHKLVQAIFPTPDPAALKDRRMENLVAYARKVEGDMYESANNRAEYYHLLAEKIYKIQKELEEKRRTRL
Sequence of Human P300 KIX domain (EP300 KIX domain) (human) (Q09472 565-652): as above

Molecule	IC50 [1] [µM]	IC50 [2] [µM]	IC50 [3] [µM]	IC50 [4] [µM]	Kd [5] [µM]	Kd [6] [µM]
MLL28MYB30 (M/M) fusion peptide, purified	8.3	23	8.5	22	–	–
SDDGNILPSDIMDFVLKNTPSMQAL (also: rhodamine label, position not given here) [Rhodamine-labelled MLL peptide (MLL25)]	–	–	–	–	40 ± 14	94 ± 11
{FITC}-KEKRIKELELLLMSTENELKGQQAL [FITC-labelled MYB peptide (MYB25)]	–	–	–	–	3.8 ± 0.2	–
